This is an account of results in publication PMC3991886, “Characterization of single-stranded DNA-binding proteins from the psychrophilic bacteria Desulfotalea psychrophila, Flavobacterium psychrophilum, Psychrobacter arcticus, Psychrobacter cryohalolentis, Psychromonas ingrahamii, Psychroflexus torquis, and Photobacterium profundum” (BMC Microbiology, 2014).

Holding throughout (experiment): fluorescence titration; 2-300 mM NaCl; site size 32 ± 2 nt; EMSA: 20 mM Tris-HCl pH 8.0, 100 mM NaCl, 1 mM EDTA, 25 C, 2% agarose in TAE; fluorescence titration: 20 mM Tris-HCl pH 8.0, 1 mM EDTA, 2/100/300 mM NaCl, 25 C
Common to all, as to settings: protein: recombinant; tags: none (stop codon in reverse primer); chain copies: 4; label: none stated

One data set deals with T1, PprSSB (Photobacterium profundum (LMG 19446), UniProt Q6LM83 5-187).
T1 sequence: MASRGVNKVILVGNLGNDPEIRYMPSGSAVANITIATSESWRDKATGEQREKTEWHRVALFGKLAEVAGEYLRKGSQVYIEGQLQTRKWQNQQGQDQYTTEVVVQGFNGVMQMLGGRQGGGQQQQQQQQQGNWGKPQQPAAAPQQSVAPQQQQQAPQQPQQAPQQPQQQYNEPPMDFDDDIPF

The target of the next data set is T2, PcrSSB (Psychrobacter cryohalolentis K5 (DSM …, UniProt Q1Q9B8 1-1+=G+2-219, internal_change)).
T2 sequence: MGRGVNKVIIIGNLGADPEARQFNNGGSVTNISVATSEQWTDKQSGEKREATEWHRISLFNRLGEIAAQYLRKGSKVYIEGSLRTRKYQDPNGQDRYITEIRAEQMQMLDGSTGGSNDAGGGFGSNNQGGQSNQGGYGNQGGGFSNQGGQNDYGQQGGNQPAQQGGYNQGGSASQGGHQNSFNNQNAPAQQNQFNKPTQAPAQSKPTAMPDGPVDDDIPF

The next data set addresses T3, PtoSSB (Psychroflexus torquis ATCC 700755 (LMG …, UniProt K4IS14 1-151)).
T3 sequence: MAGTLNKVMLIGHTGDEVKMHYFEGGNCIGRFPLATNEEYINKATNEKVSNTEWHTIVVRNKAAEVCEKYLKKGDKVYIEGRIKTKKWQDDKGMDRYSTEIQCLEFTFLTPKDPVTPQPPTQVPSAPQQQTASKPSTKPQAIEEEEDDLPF

B1: (dT)76 (ssDNA)
DNA: TTTTTTTTTTTTTTTTTTTTTTTTTTTTTTTTTTTTTTTTTTTTTTTTTTTTTTTTTTTTTTTTTTTTTTTTTTTT
Consider B1, for which the binding signal with PprSSB was 90 ± 3 % Trp fluorescence quench at saturation; in the data set with PcrSSB, 93 ± 3 % Trp fluorescence quench at saturation; with PtoSSB, 93 ± 3 % Trp fluorescence quench at saturation.
